Read-outs that look alike come from different tables or passages of the source.
T1: human GDF15-his (human)
T1 chain: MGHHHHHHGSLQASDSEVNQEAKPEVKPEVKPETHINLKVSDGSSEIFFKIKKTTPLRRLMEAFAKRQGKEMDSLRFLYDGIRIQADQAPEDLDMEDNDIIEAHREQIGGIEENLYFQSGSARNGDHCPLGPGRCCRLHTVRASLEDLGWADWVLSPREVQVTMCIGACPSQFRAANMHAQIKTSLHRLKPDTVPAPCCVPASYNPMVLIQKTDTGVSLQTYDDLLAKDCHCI

T2: human GDF15-hFc (human)
T2 construct: Recombinant hFc-tagged fusion protein expressed in 293F cells
T2 chain: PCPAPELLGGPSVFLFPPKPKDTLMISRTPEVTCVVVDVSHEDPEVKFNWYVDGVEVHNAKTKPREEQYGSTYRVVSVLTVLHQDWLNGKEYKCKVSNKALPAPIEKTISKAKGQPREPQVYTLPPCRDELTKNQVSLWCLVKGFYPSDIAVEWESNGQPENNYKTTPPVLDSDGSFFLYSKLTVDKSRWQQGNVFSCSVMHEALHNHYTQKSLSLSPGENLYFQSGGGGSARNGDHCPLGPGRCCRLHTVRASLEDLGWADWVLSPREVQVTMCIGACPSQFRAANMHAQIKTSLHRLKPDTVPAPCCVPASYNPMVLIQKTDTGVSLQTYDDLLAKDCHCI


Legend:
human GDF15-his [1] = biological target: T1, human GDF15-his; assay: cell-based or functional assay
human GDF15-his [2] = biological target: T1, human GDF15-his; assay: ELISA; antibody coated, human GDF15-his titrated, anti-his-HRP detection
Description: (§1) ELISA binding assay: The purified monoclonal antibody was subjected to a binding assay with human GDF15-his protein. The binding assay was designed to characterize the binding activity of the anti-GDF15 antibody. Briefly, a 96-well plate was coated with anti-GDF15 antibody (200 ng/well) and incubated for 1 hour at 37° C. The plates were washed with PBST and then blocked for 1 hour at room temperature using 1% BSA. Then 100 µl/well of gradient-diluted human GDF15-his solution (dose range 0-50 μg/ml) was added into plates. After incubation, 100 μl of anti-his tag secondary antibody (anti-his-HRP (1:2000), Bersee, cat #BHR790) was added to each well. Finally, the TMB solution (100 μl/well) was added. 2M H₂SO₄ was used to stop the reaction. The OD450 was measured, and the binding curves were generated by PRISM software to analyze the affinity of candidate antibodies to human GDF15 antigen, and EC₅₀ value were calculated.

human GDF15-hFc [3] = biological target: T2, human GDF15-hFc; assay: competition ELISA; GFRAL-his coated, antibody titrated against human GDF15-hFc, anti-human IgG-HRP detection
Description: (§2) The ELISA assay was performed to measure the inhibitory activity of anti-GDF15 antibodies in concentration gradients to block GDF15 binding to GFRAL receptor. IC₅₀ values were used as a measure for neutralizing activity of candidate molecules. Briefly, 96-well plates were coated with 100 ng/well of GFRAL-his protein (SEQ ID NO: 74), and incubated for 1 h at 37° C. The plates were washed with PBST and then blocked for 1 hour at 37° C. with 1% BSA. Gradient-diluted antibodies (dose range 0˜10 μg/ml) was added into each well, immediately followed by equal volume of human GDF15-hFc protein ([…]). After incubation and washing, 100 μl of anti-human IgG secondary antibody (goat anti-human IgG-HRP, Sigma, A8667) was added to each well. Finally, TMB solution (100 μl/well) was added. 2M H₂SO₄ was used to stop the reaction. The OD450 was measured and the binding curve was generated by PRISM to calculate the IC₅₀ value.

human GDF15-his [4] = biological target: T1, human GDF15-his; assay: cell-based or functional assay
human GDF15-hFc [5] = biological target: T2, human GDF15-hFc; assay: competition ELISA as in Example 2; GFRAL-his coated, antibody titrated against human GDF15-hFc
Description: as §2

human GDF15-his [6] = biological target: T1, human GDF15-his; assay: cell-based or functional assay
human GDF15-his [7] = biological target: T1, human GDF15-his; assay: ELISA as in Example 2: plate coated with the antibody, graded human GDF15-his, anti-his-HRP, OD450; the sheet's x axis reads 'Log GDF15 antibody (nM)'
Description: as §1

human GDF15-his [8] = biological target: T1, human GDF15-his; assay: cell-based or functional assay
human GDF15-his [9] = biological target: T1, human GDF15-his; assay: ELISA as in Example 2: plate coated with the antibody, graded human GDF15-his, anti-his-HRP, OD450; the sheet's x axis reads 'Log GDF15 Antibody (nM)'
Description: as §1

human GDF15-his [10] = biological target: T1, human GDF15-his; assay: as above
Description: as §1

human GDF15-his [11] = biological target: T1, human GDF15-his; assay: cell-based or functional assay

IC50, 293T-GFRAL/RET-Luc SRE luciferase reporter cells stimulated with human GDF15-his (15 ng/ml) (human GDF15-his [1]) [nM]	EC50 (human GDF15-his [2]) [nM]	IC50 (human GDF15-hFc [3]) [nM]	IC50 (read off the curve), SRE-luciferase signal in 293T-GFRAL/RET-Luc cells with human GDF15-his (human GDF15-his [4]) [nM]	IC50 (human GDF15-hFc [5]) [nM]	IC50 (read off the curve), SRE-luciferase signal in 293T-GFRAL/RET-Luc cells with human GDF15-his (human GDF15-his [6]) [nM]	Binder	other results
0.18	30.9	0.82				GDF-R54-rabIg1 (antibody, V domains shown, Full-length rabbit antibody: rabbit IgG1 heavy constant and rabbit light constant; also called GDF15-R54-rabIg1) VH: QQLKESGGRLVTPGTPLTLTCTVSGFSLSSYDMTWVRQVPGKGLEWIGIINNSGNTYYASWAKGRFTISKTSTTVDLKITSPTTEDTATYFCARGILVYADYGDHNLWGPGTLVTVSS VL: DVVMTQTASPVSAAVGGTVTINCQASEDIYTNLAWFQQKPGQPPKLLIYAASTLASGVPSRFSGSGSGTEFTLTISGLQCDDAATYFCLGVYTYISADGAFGGGTEVVVK	
0.21	31.3	1.32				GDF-R35-rabIg1 (antibody, V domains shown, Full-length rabbit antibody: rabbit IgG1 heavy constant and rabbit light constant; also called GDF15-R35-rabIg1) VH: QSLEESGGRLVTPGTPLTLTCTASGFSLSNYYMSWVRQAPGEGLEWIGMISFSGTTYATWAKGRFTISKTSTTVDLKITSPTTEDTATYFCARVVYAGWTYPLGIWGPGTLVTVSS VL: AINMTQTPASVSEPVGGTVTIKCQASQSISSVLSWYQQKPGQPPKVLIYEASTQASGVPSRFKGSGSGTDFTLTISDLECADAATYYCQANYDVYNYGNPFGGGTEVVVK	
0.18	68.9	1.56				GDF-R45-rabIg1 (antibody, V domains shown, Full-length rabbit antibody: rabbit IgG1 heavy constant and rabbit light constant; also called GDF15-R45-rabIg1) VH: QSVKESGGRLVTPGTPLTLTCTASGFSLSDYYMTWVRQAPGEGLEWIGMISFSGTTYATWAKGRFTISKASTTVDLKITSPTTEDTATYFCARVVYAGWTYPLGIWGPGTLVTVSS VL: YVMMTQTPPSVSEPVGGTVTIKCQASQSISSVLSWYQQKPGQPPKVLIYEASTLASGVPSRFKGSGSGTDFTLTISDLECADAATYYCQANYDVYNYGNPFGGGTEVVVK	
0.15	43.1	1.28	~0.05	2.49	~0.06	GDF-R37-rabIg1 (antibody, V domains shown, Full-length rabbit antibody: rabbit IgG1 heavy constant and rabbit light constant; also called GDF15-R37-rabIg1) VH: QQLKESGGRLVTPGTPLTLTCTASGFSLSNYYMSWVRQAPGEGLEWIGMISFSGTTYATWAKGRFTISKTSTTVDLKITSPTTEDTATYFCARVVYAGWTYPLGIWGPGTLVTISS VL: AVVLTQTAASVSEPVGGTVTIKCQASQSISSVLSWYQQKPGQPPKALIYEASILASGVPSRFKGSGSGTDFTLTISDLECADAATYYCQANYDVYNYGNPFGGGTEVVVK	EC50 (read off the curve) (human GDF15-his [7]): ~200 nM; IC50 (read off the curve), SRE-luciferase signal in 293T-GFRAL/RET-Luc cells with human GDF15-his (human GDF15-his [8]): ~0.2 nM; EC50 (read off the curve) (human GDF15-his [9]): ~80 nM; EC50 (read off the curve) (human GDF15-his [10]): ~60 nM; IC50 (read off the curve), SRE-luciferase signal in 293T-GFRAL/RET-Luc cells with human GDF15-his (human GDF15-his [11]): ~0.1 nM
0.27	54.8	1.98				GDF-R44-rabIg1 (antibody, V domains shown, Full-length rabbit antibody: rabbit IgG1 heavy constant and rabbit light constant; also called GDF15-R44-rabIg1) VH: QSVKESGGRLVTPGTPLTLTCKASGFSLSTYWMSWVRQAPGKGLEWIGTIYAGSGGTWYASWVKGRFTISKTSTTVDLKMTSLTTEDTATYFCVRGPNYSDAIWGPGTLVTVSS VL: DIVLTQTAASVSEPVGGTVTIKCQASEYIYSSLAWYQQKPGQPPKLLIYDASDLASGVPSRFKGSGYGTEFTLTISGVQCGDAATYYCQCTDLSSSAGNTFGGGTEVVVK	
			~0.06	1.86		hum_R37-10 (antibody, V domains shown, Tested in human IgG1 format) VH: EVQLVESGGGLVKPGGSLRLSCAASGFSLSNYYMSWVRQAPGKGLEWIGMISFSGTTYATWAKGRFTISRDDSKNTVYLQINSLKTEDTAVYFCARVVYAGWTYPLGIWGQGTLVTVSS VL: DIQMTQSPSSLSASVGDRVTITCQASQSISSVLSWYQQKPGKPPKALIYEASILASGVPSRFSGSGSGTDFTLTISSLQPEDFATYYCQANYDVYNYGNPFGGGTKVEIK	EC50 (read off the curve) (human GDF15-his [9]): ~80 nM
				1.33	~0.08	hum_R37-17 (antibody, V domains shown, Tested in human IgG1 format) VH: EVQLVESGGGLVKPGGSLRLSCAASGFSLSNYYMSWVRQAPGKGLEWVGMISFSGTTYATWAKGRFTISRDDSKNTVYLQINSLKTEDTAVYFCARVVYAGWTYPLGIWGQGTLVTVSS VL: DIQMTQSPSSLSASVGDRVTITCQASQSISSVLSWYQQKPGKPPKLLIYEASILASGVPSRFSGSGSGTDFTLTISSLQPEDFATYYCQANYDVYNYGNPFGGGTKVEIK	EC50 (read off the curve) (human GDF15-his [7]): ~200 nM
				1.63	~0.08	hum_R37-16 (antibody, V domains shown, Tested in human IgG1 format) VH: EVQLVESGGGLVKPGGSLRLSCAASGFSLSNYYMSWVRQAPGKGLEWIGMISFSGTTYATWAKGRFTISRDDSKNTVYLQINSLKTEDTAVYFCARVVYAGWTYPLGIWGQGTLVTVSS VL: DIQMTQSPSSLSASVGDRVTITCQASQSISSVLSWYQQKPGKPPKLLIYEASILASGVPSRFSGSGSGTDFTLTISSLQPEDFATYYCQANYDVYNYGNPFGGGTKVEIK	EC50 (read off the curve) (human GDF15-his [7]): ~200 nM
			~0.06	1.76		hum_R37-4 (antibody, V domains shown, Tested in human IgG1 format) VH: EVQLVESGGGLVKPGGSLRLSCAASGFSLSNYYMSWVRQAPGKGLEWIGMISFSGTTYATWAKGRFTISRDDSKNTVYLQINSLKTEDTAVYFCARVVYAGWTYPLGIWGQGTLVTVSS VL: DIQLTQSPSSLSASVGDRVTITCQASQSISSVLSWYQQKPGKPPKALIYEASILASGVPSRFSGSGSGTDFTLTISSLQPEDFATYYCQANYDVYNYGNPFGGGTKVEIK	EC50 (read off the curve) (human GDF15-his [10]): ~60 nM
				1.83	~0.05	hum_R37-12 (antibody, V domains shown, Tested in human IgG1 format) VH: EVQLVESGGGLVKPGGSLRLSCAASGFSLSNYYMSWVRQAPGKGLEWVGMISFSGTTYATWAKGRFTISRDDSKNTLYLQMNSLKTEDTAVYFCARVVYAGWTYPLGIWGQGTLVTVSS VL: DIQMTQSPSSLSASVGDRVTITCQASQSISSVLSWYQQKPGKPPKALIYEASILASGVPSRFSGSGSGTDFTLTISSLQPEDFATYYCQANYDVYNYGNPFGGGTKVEIK	EC50 (read off the curve) (human GDF15-his [9]): ~80 nM
			~0.06	1.72		hum_R37-6 (antibody, V domains shown, Tested in human IgG1 format) VH: EVQLVESGGGLVKPGGSLRLSCAASGFSLSNYYMSWVRQAPGKGLEWVGMISFSGTTYATWAKGRFTISRDDSKNTLYLQMNSLKTEDTAVYFCARVVYAGWTYPLGIWGQGTLVTVSS VL: DIQLTQSPSSLSASVGDRVTITCQASQSISSVLSWYQQKPGKPPKALIYEASILASGVPSRFSGSGSGTDFTLTISSLQPEDFATYYCQANYDVYNYGNPFGGGTKVEIK	EC50 (read off the curve) (human GDF15-his [10]): ~60 nM

Reference: patent US20250326828A1 (STAIDSON BEIJING BIOPHARMACEUTICALS, published 2025)
